Where “and” joins values, the source holds several entries; their conditions need not be identical. Equal values may be shown once. Each block holds one molecule with its values, some of them ahead of it. Where no end group is shown, it is not given here.
Legend:
ATF4/FOS heterodimer = biological target: T1, ATF4/FOS heterodimer (Homo sapiens, UniProt P18848); experiment: Competition FRET assay; assay type: binding; conditions: 37°C; 10 nM ATF4 (fluorescein) with 200 nM FOS (TAMRA); unlabeled design
T1 construct: made in house
Experimental: (§1) In the competition form of the assay, a FRET pair was made by mixing 10 nM of the donor-labeled peptide with a specified concentration of the acceptor-labeled peptide in 1 mM TCEP-HCl, and 20 μL of this solution was added to the wells after unlabeled design was titrated in 2-fold dilutions over the wells to a final concentration ranging from 0 to 2.5 μM. The amount of acceptor used varied for each curve, taking into account the Kd of the FRET complex in order to obtain a good lower baseline for fitting purposes. Samples were equilibrated for one hour before reading the plates; repeated reading of the plates over several hours gave no change in signal.
(§2) For the competition experiments, the IC50 was determined in MATLAB by fitting the binding data to the equation signal=a+b−a/(1+x/c)^H , where a and b are the lower and upper baselines, c is the IC50 value, x is the inhibitor concentration, and the Hill coefficient H was set to 1. Ki values were calculated as in Fu et al..

XBP1/CREBZF heterodimer = biological target: T2, XBP1/CREBZF heterodimer (Homo sapiens, UniProt P17861); experiment: Competition FRET assay; assay type: binding; conditions: 23°C; 10 nM XBP1 (fluorescein) with 50 nM CREBZF (TAMRA); unlabeled design
T2 construct: made in house
Experimental: as §1, §2

JUN = JUN (Homo sapiens, UniProt P05412); experiment: FRET or BRET; direct-binding FRET in 384-well plates; rhodamine-labelled design (acceptor) titrated 0 to 1 uM into 10 nM fluorescein-labelled bZIP (donor); 150 mM KCl, 50 mM potassium phosphate pH 7.4, 0.1% Tween-20, 0.1% BSA; 37 °C
BACH2 [1] = biological target: T3, BACH2 (Homo sapiens, UniProt Q9BYV9); experiment: as above
[2] = biological target: Activating Transcription Factor (ATF) 3 (human) (UniProt P18847); experiment: FRET or BRET; direct-binding FRET in 384-well plates; rhodamine-labelled design (acceptor) titrated 0 to 1 uM into 10 nM fluorescein-labelled bZIP (donor); 150 mM KCl, 50 mM potassium phosphate pH 7.4, 0.1% Tween-20, 0.1% BSA; 4 °C
BACH2 [3] = biological target: T3, BACH2; experiment: as above
[4] = biological target: the molecule itself; experiment: FRET or BRET; direct-binding FRET of the designed peptide with itself (row 'homodimer'; dimer to monomers); acceptor-labelled design titrated into donor-labelled design by note 1 of the tables; 4 °C
NFE2L3 (human) = NFE2L3 (human) (UniProt Q9Y4A8); experiment: FRET or BRET; direct-binding FRET in 384-well plates; rhodamine-labelled design (acceptor) titrated 0 to 1 uM into 10 nM fluorescein-labelled bZIP (donor); 150 mM KCl, 50 mM potassium phosphate pH 7.4, 0.1% Tween-20, 0.1% BSA; 4 °C
MAFB = MAFB (Homo sapiens, UniProt Q9Y5Q3); experiment: as above
MAFF (human) = MAFF (human) (UniProt Q9ULX9); experiment: as above
NFIL3 (human) = NFIL3 (human) (UniProt Q16649); experiment: as above
FOS = FOS (Homo sapiens, UniProt P01100); experiment: as above
MAFG = MAFG (Homo sapiens, UniProt O15525); experiment: as above
ATF6B = ATF6B (Homo sapiens, UniProt Q99941); experiment: as above
BACH1 = BACH1 (Homo sapiens, UniProt O14867); experiment: as above
MAF = MAF (Homo sapiens, UniProt O75444); experiment: as above
Chain of MAF (O75444 whole entry): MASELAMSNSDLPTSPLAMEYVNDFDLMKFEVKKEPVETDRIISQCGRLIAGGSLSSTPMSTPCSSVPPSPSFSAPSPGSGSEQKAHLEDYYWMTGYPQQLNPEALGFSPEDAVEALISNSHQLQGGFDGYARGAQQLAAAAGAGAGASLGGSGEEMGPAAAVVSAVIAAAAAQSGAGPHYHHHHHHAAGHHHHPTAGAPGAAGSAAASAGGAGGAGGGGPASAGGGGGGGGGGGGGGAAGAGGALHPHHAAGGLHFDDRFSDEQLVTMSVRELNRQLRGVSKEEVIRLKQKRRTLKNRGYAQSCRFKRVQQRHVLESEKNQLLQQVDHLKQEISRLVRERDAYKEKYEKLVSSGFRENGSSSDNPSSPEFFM

Chain of NFIL3 (human) (Q16649 whole entry): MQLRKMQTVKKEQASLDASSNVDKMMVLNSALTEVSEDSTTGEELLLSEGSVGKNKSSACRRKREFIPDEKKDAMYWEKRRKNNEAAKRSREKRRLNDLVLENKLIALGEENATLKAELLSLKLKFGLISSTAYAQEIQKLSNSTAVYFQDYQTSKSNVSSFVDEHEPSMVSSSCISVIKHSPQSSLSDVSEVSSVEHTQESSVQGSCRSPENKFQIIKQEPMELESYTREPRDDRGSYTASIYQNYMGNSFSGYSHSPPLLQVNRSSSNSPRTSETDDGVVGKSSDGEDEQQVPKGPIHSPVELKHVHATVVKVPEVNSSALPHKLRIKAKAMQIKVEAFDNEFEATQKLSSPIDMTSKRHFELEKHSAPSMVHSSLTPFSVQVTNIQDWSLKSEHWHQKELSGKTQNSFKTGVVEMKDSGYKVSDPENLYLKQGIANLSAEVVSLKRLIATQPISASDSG
T3 sequence (Q9BYV9 whole entry): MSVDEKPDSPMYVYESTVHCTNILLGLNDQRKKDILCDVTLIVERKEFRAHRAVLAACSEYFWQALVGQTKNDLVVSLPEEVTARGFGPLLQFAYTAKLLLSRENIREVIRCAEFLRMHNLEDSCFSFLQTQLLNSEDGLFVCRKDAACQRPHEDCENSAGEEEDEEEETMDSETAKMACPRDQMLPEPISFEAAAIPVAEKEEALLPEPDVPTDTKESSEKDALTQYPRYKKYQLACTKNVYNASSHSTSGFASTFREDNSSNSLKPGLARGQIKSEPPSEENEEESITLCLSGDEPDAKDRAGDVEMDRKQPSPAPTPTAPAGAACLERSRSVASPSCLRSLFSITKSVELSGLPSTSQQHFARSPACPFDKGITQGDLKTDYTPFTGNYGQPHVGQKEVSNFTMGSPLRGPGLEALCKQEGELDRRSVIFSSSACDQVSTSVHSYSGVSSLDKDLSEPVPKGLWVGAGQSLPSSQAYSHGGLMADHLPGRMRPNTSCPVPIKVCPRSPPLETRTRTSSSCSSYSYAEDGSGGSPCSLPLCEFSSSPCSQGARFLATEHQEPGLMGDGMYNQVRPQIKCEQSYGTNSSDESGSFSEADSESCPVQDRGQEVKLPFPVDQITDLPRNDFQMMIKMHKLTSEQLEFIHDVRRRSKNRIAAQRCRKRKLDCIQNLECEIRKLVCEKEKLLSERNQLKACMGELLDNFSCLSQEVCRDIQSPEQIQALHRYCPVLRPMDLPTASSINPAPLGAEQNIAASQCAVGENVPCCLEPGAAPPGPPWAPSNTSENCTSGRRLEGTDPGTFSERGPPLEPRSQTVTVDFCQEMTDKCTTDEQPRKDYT
Chain of JUN (P05412 whole entry): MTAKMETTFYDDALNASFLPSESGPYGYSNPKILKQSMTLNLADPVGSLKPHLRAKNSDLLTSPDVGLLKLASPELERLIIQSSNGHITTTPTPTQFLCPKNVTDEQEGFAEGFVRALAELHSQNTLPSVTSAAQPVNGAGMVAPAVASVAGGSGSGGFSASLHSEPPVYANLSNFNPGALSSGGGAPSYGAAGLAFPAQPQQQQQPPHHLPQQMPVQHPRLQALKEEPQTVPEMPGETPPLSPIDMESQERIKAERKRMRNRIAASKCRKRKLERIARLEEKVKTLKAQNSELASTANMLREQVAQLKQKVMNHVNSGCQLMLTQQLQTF
Chain of MAFG (O15525 whole entry): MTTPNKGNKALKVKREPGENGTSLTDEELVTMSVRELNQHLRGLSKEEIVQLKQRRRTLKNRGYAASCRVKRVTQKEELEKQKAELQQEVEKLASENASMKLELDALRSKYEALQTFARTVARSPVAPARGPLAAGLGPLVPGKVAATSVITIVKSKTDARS
Chain of ATF6B (Q99941 whole entry): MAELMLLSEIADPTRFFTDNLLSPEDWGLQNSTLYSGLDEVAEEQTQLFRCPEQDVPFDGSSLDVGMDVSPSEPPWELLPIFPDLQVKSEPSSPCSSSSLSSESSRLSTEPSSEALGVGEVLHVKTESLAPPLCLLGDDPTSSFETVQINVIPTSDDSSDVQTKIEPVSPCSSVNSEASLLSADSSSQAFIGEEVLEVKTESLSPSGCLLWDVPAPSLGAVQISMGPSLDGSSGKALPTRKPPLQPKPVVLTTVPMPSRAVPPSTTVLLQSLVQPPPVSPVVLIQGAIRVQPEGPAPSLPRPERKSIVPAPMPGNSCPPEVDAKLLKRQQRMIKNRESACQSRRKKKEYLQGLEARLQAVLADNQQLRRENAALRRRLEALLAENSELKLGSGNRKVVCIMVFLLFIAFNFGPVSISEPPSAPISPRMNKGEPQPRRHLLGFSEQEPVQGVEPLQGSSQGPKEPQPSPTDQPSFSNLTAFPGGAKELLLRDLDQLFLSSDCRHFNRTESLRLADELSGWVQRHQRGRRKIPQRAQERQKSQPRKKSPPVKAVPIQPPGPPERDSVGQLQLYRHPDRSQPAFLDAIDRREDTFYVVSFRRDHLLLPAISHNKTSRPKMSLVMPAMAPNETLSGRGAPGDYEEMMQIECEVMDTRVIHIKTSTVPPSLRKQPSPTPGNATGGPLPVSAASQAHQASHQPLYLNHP
Chain of MAFF (human) (Q9ULX9 whole entry): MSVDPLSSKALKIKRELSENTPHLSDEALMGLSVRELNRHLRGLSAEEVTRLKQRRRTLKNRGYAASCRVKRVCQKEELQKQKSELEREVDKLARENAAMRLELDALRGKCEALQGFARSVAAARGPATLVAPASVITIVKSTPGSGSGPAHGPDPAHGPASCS
Chain of MAFB (Q9Y5Q3 whole entry): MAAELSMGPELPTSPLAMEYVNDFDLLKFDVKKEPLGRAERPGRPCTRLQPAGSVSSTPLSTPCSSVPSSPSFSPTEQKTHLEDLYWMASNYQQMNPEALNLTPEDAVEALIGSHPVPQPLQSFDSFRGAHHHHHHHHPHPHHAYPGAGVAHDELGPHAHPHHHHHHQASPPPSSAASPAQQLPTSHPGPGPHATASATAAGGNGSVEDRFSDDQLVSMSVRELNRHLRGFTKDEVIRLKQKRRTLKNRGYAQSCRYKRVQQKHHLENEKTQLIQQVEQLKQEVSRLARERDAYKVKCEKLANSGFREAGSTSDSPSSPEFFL
Chain of Activating Transcription Factor (ATF) 3 (human) (P18847 whole entry): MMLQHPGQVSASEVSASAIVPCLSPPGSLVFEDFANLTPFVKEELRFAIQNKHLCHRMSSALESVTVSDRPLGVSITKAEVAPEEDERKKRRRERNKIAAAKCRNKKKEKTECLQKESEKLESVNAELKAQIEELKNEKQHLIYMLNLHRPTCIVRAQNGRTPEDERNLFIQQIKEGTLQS
Chain of BACH1 (O14867 whole entry): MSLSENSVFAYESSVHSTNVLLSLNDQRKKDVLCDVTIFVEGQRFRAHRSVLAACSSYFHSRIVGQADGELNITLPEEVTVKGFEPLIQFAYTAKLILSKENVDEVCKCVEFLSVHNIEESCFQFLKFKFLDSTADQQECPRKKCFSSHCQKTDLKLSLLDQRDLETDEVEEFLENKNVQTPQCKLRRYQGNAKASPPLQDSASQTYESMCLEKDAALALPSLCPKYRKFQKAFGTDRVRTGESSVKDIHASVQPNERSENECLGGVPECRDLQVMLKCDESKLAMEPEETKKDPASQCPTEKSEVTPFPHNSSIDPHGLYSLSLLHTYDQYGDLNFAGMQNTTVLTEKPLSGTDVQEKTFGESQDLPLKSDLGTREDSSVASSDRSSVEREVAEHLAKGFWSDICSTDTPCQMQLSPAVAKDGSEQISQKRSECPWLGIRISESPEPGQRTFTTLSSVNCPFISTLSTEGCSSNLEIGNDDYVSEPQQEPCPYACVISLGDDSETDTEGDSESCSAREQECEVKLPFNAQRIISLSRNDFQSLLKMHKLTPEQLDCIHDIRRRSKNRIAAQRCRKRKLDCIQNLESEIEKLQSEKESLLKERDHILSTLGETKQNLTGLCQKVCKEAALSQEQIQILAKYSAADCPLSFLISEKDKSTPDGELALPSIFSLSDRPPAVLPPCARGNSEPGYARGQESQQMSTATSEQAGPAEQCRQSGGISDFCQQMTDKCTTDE
Chain of NFE2L3 (human) (Q9Y4A8 whole entry): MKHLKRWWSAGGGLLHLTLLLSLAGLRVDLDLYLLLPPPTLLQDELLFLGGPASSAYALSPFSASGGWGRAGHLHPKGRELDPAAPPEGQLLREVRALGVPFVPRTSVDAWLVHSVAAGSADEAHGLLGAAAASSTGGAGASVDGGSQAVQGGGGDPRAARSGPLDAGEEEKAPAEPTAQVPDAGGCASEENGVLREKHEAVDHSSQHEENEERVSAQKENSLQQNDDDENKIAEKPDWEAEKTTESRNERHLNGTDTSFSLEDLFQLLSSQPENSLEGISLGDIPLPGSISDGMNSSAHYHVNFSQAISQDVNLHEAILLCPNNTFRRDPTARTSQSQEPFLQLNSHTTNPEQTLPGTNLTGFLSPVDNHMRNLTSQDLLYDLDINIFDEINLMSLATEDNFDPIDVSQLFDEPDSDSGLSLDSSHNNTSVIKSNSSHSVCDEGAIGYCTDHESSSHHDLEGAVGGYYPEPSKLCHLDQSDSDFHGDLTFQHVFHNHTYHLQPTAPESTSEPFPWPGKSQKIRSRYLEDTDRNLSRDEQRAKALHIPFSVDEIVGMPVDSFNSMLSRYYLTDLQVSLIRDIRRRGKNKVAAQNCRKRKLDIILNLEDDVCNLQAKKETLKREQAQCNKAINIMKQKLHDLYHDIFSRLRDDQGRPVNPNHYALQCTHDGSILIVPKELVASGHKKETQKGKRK

- IC50 (ATF4/FOS heterodimer): 279 nM
Molecule: NQIKTLRTRLSKLRKDNLQLEKDIANLERKAKDLRAEKEQLEYEL [ATF4-d1]

- IC50 (XBP1/CREBZF heterodimer): 136 nM
Molecule: EREAQLENRVAHLKEKNQELKAQNLHLKEALSEAQNRNQELKNDA [XBP1-d1]

- Kd (JUN): > 5000 nM
- Kd (BACH2 [1]): > 5000 nM
- Kd [2]: > 5000 nM
- Kd (BACH2 [3]): > 5000 nM
B1: ATF5-d1 labeled at the C-terminus (designed binder)
chain: GESKEYKKGSGSKRIAYLRQRIAELRNENHVLESRIQRMEKEKDALQQDRDHLEYELGC(Rhodamine Red C2‑maleimide)
modifications: not fully specified

- Kd (NFE2L3 (human)): 1000 nM
- Kd (MAFB): > 5000 nM
- Kd (MAFF (human)): > 5000 nM
- Kd (NFIL3 (human)): 22.8 nM and 23.3 nM and 22.6 nM
- Kd (FOS): 1000 nM
- Kd (MAFG): 1000 nM
- Kd (ATF6B): 1000 nM
- Kd (BACH1): > 5000 nM
- Kd (MAF): > 5000 nM
B2: ATF4-d1 labeled at the C-terminus (designed binder)
chain: GESKEYKKGSGSNQIKTLRTRLSKLRKDNLQLEKDIANLERKAKDLRAEKEQLEYELGC
modifications: also: C59 label by assay: Rhodamine Red C2-maleimide or fluorescein-5-maleimide
notes: solubility linker after the His6 tag; added to the C-terminus for labeling; one molecule for the rhodamine- and the fluorescein-labelled form; the assay tells which label stood there; also called ATF4-d1-Rhodamine; ATF4-d1-FITC; source: E. coli RP3098, purified (Ni-NTA under denaturing conditions, reverse-phase HPLC)
- Kd [4]: 1 nM

From publication PMC4335062, “Data-Driven Prediction and Design of bZIP Coiled-Coil Interactions” (PLoS Computational Biology, 2015)
